Patent US20180273587A1 (AILERON THERAPEUTICS, published 2018)
One block for each binder: values may come before it. Positions of bridges follow the written chain, without caps; N, C: chain ends. Non-standard residues stand in square brackets, D forms with d. Phe(4-F) = N[C@@H](Cc1ccc(F)cc1)C(=O)O; R8 = C=CCCCCCC[C@@](C)(N)C(=O)O; Cit = NC(=O)NCCC[C@H](N)C(=O)O; αMeD = C[C@](N)(CC(=O)O)C(=O)O; αMeL = CC(C)C[C@](C)(N)C(=O)O; hLeu = CC(C)CC[C@H](N)C(=O)O; S5 = C=CCCC[C@](C)(N)C(=O)O; Ac6c = NC1(C(=O)O)CCCCC1; Ac5c = NC1(C(=O)O)CCCC1; Aib = CC(C)(N)C(=O)O

Tests used:
MCL-1 [1] = target: T1, MCL-1 (UniProt Q07820 172-327, limits assumed); test: Ki table, method not stated
T1 construct: also called Myeloid cell leukemia 1
T1 sequence (Q07820 172-327 limits assumed): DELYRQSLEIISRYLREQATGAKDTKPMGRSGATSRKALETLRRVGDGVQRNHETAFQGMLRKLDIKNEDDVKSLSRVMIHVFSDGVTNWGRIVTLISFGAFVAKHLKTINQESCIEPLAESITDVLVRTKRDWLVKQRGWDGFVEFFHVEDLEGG

BCL-XL [2] = target: BCL-XL (UniProt Q07817 1-209); test: Ki table, method not stated
Target sequence in this assay (Q07817 1-209): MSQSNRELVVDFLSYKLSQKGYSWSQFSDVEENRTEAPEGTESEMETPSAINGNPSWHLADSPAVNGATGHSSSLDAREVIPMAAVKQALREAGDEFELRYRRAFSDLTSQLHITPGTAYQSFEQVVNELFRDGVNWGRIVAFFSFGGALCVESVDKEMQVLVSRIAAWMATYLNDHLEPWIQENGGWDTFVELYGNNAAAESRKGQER

BCL-2 = BCL-2 (UniProt P10415 1-217, limits assumed); test: Ki table, method not stated
Chain of BCL-2 (P10415 1-217 limits assumed): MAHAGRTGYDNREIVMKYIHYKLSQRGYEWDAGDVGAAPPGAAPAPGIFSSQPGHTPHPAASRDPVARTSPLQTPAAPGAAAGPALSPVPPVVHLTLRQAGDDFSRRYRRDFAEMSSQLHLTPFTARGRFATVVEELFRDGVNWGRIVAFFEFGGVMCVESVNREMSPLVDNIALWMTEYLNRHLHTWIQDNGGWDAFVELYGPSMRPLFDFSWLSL

BCL-XL [3] = target: T2, BCL-XL (UniProt Q07817 1-209); test: Ki; method not stated; unit not printed (nM per Table 6)
T2 construct: Target of the Ki columns
T2 sequence (Q07817 1-209): as the sequence (Q07817 1-209) above

MCL-1 [4] = target: T3, MCL-1 (UniProt Q07820 172-327, limits assumed); test: as above
T3 construct: Target of the Ki columns; also called Myeloid cell leukemia 1
T3 sequence (Q07820 172-327 limits assumed): as the sequence (Q07820 172-327 limits assumed) above

B1: SEQ ID NO: 1655 (peptide)
peptide: IWIAQALXAIGDAFNAYYA
modifications: Ac- at N-terminus; -NH2 at C-terminus; $r8 at 9 and $ at 16 joined by all-carbon crosslinker; Cit (citrulline) at 8
Ki (MCL-1 [1]): 7.5 nM | Ki (BCL-XL [2]): 109 nM | Ki (BCL-2): 212 nM

B2: SEQ ID NO: 1723 (peptide)
peptide: Ac-[Aib]WIAAALR[R8]IGDAFN[S5]YYA-NH2
modifications: staple 9-16
SMILES: CC[C@H](C)[C@H](NC(=O)[C@H](Cc1c[nH]c2ccccc12)NC(=O)C(C)(C)NC(C)=O)C(=O)N[C@@H](C)C(=O)N[C@@H](C)C(=O)N[C@@H](C)C(=O)N[C@@H](CC(C)C)C(=O)N[C@@H](CCCNC(=N)N)C(=O)N[C@]1(C)CCCCCCC=CCCC[C@@](C)(C(=O)N[C@@H](Cc2ccc(O)cc2)C(=O)N[C@@H](Cc2ccc(O)cc2)C(=O)N[C@@H](C)C(N)=O)NC(=O)[C@H](CC(N)=O)NC(=O)[C@H](Cc2ccccc2)NC(=O)[C@H](C)NC(=O)[C@H](CC(=O)O)NC(=O)CNC(=O)[C@H]([C@@H](C)CC)NC1=O
notes: also called Ac-AibWIAAALR$r8IGDAFN$YYA-NH2
Ki (MCL-1 [1]): 4 nM | Ki (BCL-XL [2]): 20.3 nM | Ki (BCL-2): 56 nM

B3: SEQ ID NO: 1715 (peptide)
peptide: Ac-IW[Ac5c]AQALR[R8]IGDAFN[S5]YYA-NH2
modifications: staple 9-16
SMILES: CC[C@H](C)[C@H](NC(C)=O)C(=O)N[C@@H](Cc1c[nH]c2ccccc12)C(=O)NC1(C(=O)N[C@@H](C)C(=O)N[C@@H](CCC(N)=O)C(=O)N[C@@H](C)C(=O)N[C@@H](CC(C)C)C(=O)N[C@@H](CCCNC(=N)N)C(=O)N[C@]2(C)CCCCCCC=CCCC[C@@](C)(C(=O)N[C@@H](Cc3ccc(O)cc3)C(=O)N[C@@H](Cc3ccc(O)cc3)C(=O)N[C@@H](C)C(N)=O)NC(=O)[C@H](CC(N)=O)NC(=O)[C@H](Cc3ccccc3)NC(=O)[C@H](C)NC(=O)[C@H](CC(=O)O)NC(=O)CNC(=O)[C@H]([C@@H](C)CC)NC2=O)CCCC1
notes: also called Ac-IWAc5cAQALR$r8IGDAFN$YYA-NH2
Ki (MCL-1 [1]): 8.9 nM | Ki (BCL-XL [2]): 8.4 nM | Ki (BCL-2): 68.2 nM

B4: SEQ ID NO: 1708 (peptide)
peptide: Ac-IWIA[Aib]ALR[R8]IGDAFN[S5]YYA-NH2
modifications: staple 9-16
SMILES: CC[C@H](C)[C@H](NC(C)=O)C(=O)N[C@@H](Cc1c[nH]c2ccccc12)C(=O)N[C@H](C(=O)N[C@@H](C)C(=O)NC(C)(C)C(=O)N[C@@H](C)C(=O)N[C@@H](CC(C)C)C(=O)N[C@@H](CCCNC(=N)N)C(=O)N[C@]1(C)CCCCCCC=CCCC[C@@](C)(C(=O)N[C@@H](Cc2ccc(O)cc2)C(=O)N[C@@H](Cc2ccc(O)cc2)C(=O)N[C@@H](C)C(N)=O)NC(=O)[C@H](CC(N)=O)NC(=O)[C@H](Cc2ccccc2)NC(=O)[C@H](C)NC(=O)[C@H](CC(=O)O)NC(=O)CNC(=O)[C@H]([C@@H](C)CC)NC1=O)[C@@H](C)CC
notes: also called Ac-IWIAAibALR$r8IGDAFN$YYA-NH2
Ki (MCL-1 [1]): 5.5 nM | Ki (BCL-XL [2]): 59 nM | Ki (BCL-2): 120 nM

B5: SEQ ID NO: 1714 (peptide)
peptide: Ac-IW[Ac6c]AQALR[R8]IGDAFN[S5]YYA-NH2
modifications: staple 9-16
SMILES: CC[C@H](C)[C@H](NC(C)=O)C(=O)N[C@@H](Cc1c[nH]c2ccccc12)C(=O)NC1(C(=O)N[C@@H](C)C(=O)N[C@@H](CCC(N)=O)C(=O)N[C@@H](C)C(=O)N[C@@H](CC(C)C)C(=O)N[C@@H](CCCNC(=N)N)C(=O)N[C@]2(C)CCCCCCC=CCCC[C@@](C)(C(=O)N[C@@H](Cc3ccc(O)cc3)C(=O)N[C@@H](Cc3ccc(O)cc3)C(=O)N[C@@H](C)C(N)=O)NC(=O)[C@H](CC(N)=O)NC(=O)[C@H](Cc3ccccc3)NC(=O)[C@H](C)NC(=O)[C@H](CC(=O)O)NC(=O)CNC(=O)[C@H]([C@@H](C)CC)NC2=O)CCCCC1
notes: also called Ac-IWAc6cAQALR$r8IGDAFN$YYA-NH2
Ki (MCL-1 [1]): 10.4 nM | Ki (BCL-XL [2]): 7.7 nM | Ki (BCL-2): 25.7 nM

B6: SEQ ID NO: 1771 (peptide)
peptide: Ac-IWIAQAA[Cit][R8]IGDAFN[S5]YYA-NH2
modifications: staple 9-16
SMILES: CC[C@H](C)[C@H](NC(C)=O)C(=O)N[C@@H](Cc1c[nH]c2ccccc12)C(=O)N[C@H](C(=O)N[C@@H](C)C(=O)N[C@@H](CCC(N)=O)C(=O)N[C@@H](C)C(=O)N[C@@H](C)C(=O)N[C@@H](CCCNC(N)=O)C(=O)N[C@]1(C)CCCCCCC=CCCC[C@@](C)(C(=O)N[C@@H](Cc2ccc(O)cc2)C(=O)N[C@@H](Cc2ccc(O)cc2)C(=O)N[C@@H](C)C(N)=O)NC(=O)[C@H](CC(N)=O)NC(=O)[C@H](Cc2ccccc2)NC(=O)[C@H](C)NC(=O)[C@H](CC(=O)O)NC(=O)CNC(=O)[C@H]([C@@H](C)CC)NC1=O)[C@@H](C)CC
Ki (BCL-XL [3]): 85 nM

B9: SEQ ID NO: 1767 (peptide)
peptide: Ac-IWIAQA[αMeL]R[R8]IGDAFN[S5]YYA-NH2
modifications: staple 9-16
SMILES: CC[C@H](C)[C@H](NC(C)=O)C(=O)N[C@@H](Cc1c[nH]c2ccccc12)C(=O)N[C@H](C(=O)N[C@@H](C)C(=O)N[C@@H](CCC(N)=O)C(=O)N[C@@H](C)C(=O)N[C@@](C)(CC(C)C)C(=O)N[C@@H](CCCNC(=N)N)C(=O)N[C@]1(C)CCCCCCC=CCCC[C@@](C)(C(=O)N[C@@H](Cc2ccc(O)cc2)C(=O)N[C@@H](Cc2ccc(O)cc2)C(=O)N[C@@H](C)C(N)=O)NC(=O)[C@H](CC(N)=O)NC(=O)[C@H](Cc2ccccc2)NC(=O)[C@H](C)NC(=O)[C@H](CC(=O)O)NC(=O)CNC(=O)[C@H]([C@@H](C)CC)NC1=O)[C@@H](C)CC
notes: Row prints Ac-IWIAQAAmLR$r8IGDAFN$YYA-NH2
Ki (MCL-1 [4]): 86.6 nM

B10: SEQ ID NO: 1768 (peptide)
peptide: Ac-IWIAQALR[R8]IG[αMeD]AFN[S5]YYA-NH2
modifications: staple 9-16
SMILES: CC[C@H](C)[C@H](NC(C)=O)C(=O)N[C@@H](Cc1c[nH]c2ccccc12)C(=O)N[C@H](C(=O)N[C@@H](C)C(=O)N[C@@H](CCC(N)=O)C(=O)N[C@@H](C)C(=O)N[C@@H](CC(C)C)C(=O)N[C@@H](CCCNC(=N)N)C(=O)N[C@]1(C)CCCCCCC=CCCC[C@@](C)(C(=O)N[C@@H](Cc2ccc(O)cc2)C(=O)N[C@@H](Cc2ccc(O)cc2)C(=O)N[C@@H](C)C(N)=O)NC(=O)[C@H](CC(N)=O)NC(=O)[C@H](Cc2ccccc2)NC(=O)[C@H](C)NC(=O)[C@](C)(CC(=O)O)NC(=O)CNC(=O)[C@H]([C@@H](C)CC)NC1=O)[C@@H](C)CC
Ki (BCL-XL [3]): 206 nM

Further lines, results first:

Ki (MCL-1 [4]): 39.5 nM
B7: SEQ ID NO: 1773 (peptide)
peptide: Ac-IWIAQAL[Cit][R8]IGDAAN[S5]YYA-NH2
modifications: staple 9-16
SMILES: CC[C@H](C)[C@H](NC(C)=O)C(=O)N[C@@H](Cc1c[nH]c2ccccc12)C(=O)N[C@H](C(=O)N[C@@H](C)C(=O)N[C@@H](CCC(N)=O)C(=O)N[C@@H](C)C(=O)N[C@@H](CC(C)C)C(=O)N[C@@H](CCCNC(N)=O)C(=O)N[C@]1(C)CCCCCCC=CCCC[C@@](C)(C(=O)N[C@@H](Cc2ccc(O)cc2)C(=O)N[C@@H](Cc2ccc(O)cc2)C(=O)N[C@@H](C)C(N)=O)NC(=O)[C@H](CC(N)=O)NC(=O)[C@H](C)NC(=O)[C@H](C)NC(=O)[C@H](CC(=O)O)NC(=O)CNC(=O)[C@H]([C@@H](C)CC)NC1=O)[C@@H](C)CC

Ki (MCL-1 [4]): 0.8 nM
B8: SEQ ID NO: 1774 (peptide)
peptide: Ac-IWIAQAL[Cit][R8]IGDAVN[S5]YYA-NH2
modifications: staple 9-16
SMILES: CC[C@H](C)[C@H](NC(C)=O)C(=O)N[C@@H](Cc1c[nH]c2ccccc12)C(=O)N[C@H](C(=O)N[C@@H](C)C(=O)N[C@@H](CCC(N)=O)C(=O)N[C@@H](C)C(=O)N[C@@H](CC(C)C)C(=O)N[C@@H](CCCNC(N)=O)C(=O)N[C@]1(C)CCCCCCC=CCCC[C@@](C)(C(=O)N[C@@H](Cc2ccc(O)cc2)C(=O)N[C@@H](Cc2ccc(O)cc2)C(=O)N[C@@H](C)C(N)=O)NC(=O)[C@H](CC(N)=O)NC(=O)[C@H](C(C)C)NC(=O)[C@H](C)NC(=O)[C@H](CC(=O)O)NC(=O)CNC(=O)[C@H]([C@@H](C)CC)NC1=O)[C@@H](C)CC

Ki (BCL-XL [3]): 43 nM | Ki (MCL-1 [4]): 58 nM
B11: SEQ ID NO: 1776 (peptide)
peptide: Ac-IWIAQALR[R8][hLeu]GDAFN[S5][Phe(4-F)]YA-NH2
modifications: staple 9-16
SMILES: CC[C@H](C)[C@H](NC(C)=O)C(=O)N[C@@H](Cc1c[nH]c2ccccc12)C(=O)N[C@H](C(=O)N[C@@H](C)C(=O)N[C@@H](CCC(N)=O)C(=O)N[C@@H](C)C(=O)N[C@@H](CC(C)C)C(=O)N[C@@H](CCCNC(=N)N)C(=O)N[C@]1(C)CCCCCCC=CCCC[C@@](C)(C(=O)N[C@@H](Cc2ccc(F)cc2)C(=O)N[C@@H](Cc2ccc(O)cc2)C(=O)N[C@@H](C)C(N)=O)NC(=O)[C@H](CC(N)=O)NC(=O)[C@H](Cc2ccccc2)NC(=O)[C@H](C)NC(=O)[C@H](CC(=O)O)NC(=O)CNC(=O)[C@H](CCC(C)C)NC1=O)[C@@H](C)CC

Ki (BCL-XL [3]): 13 nM | Ki (MCL-1 [4]): 27 nM
B12: SEQ ID NO: 1777 (peptide)
peptide: Ac-IWIAQALR[R8][hLeu]GDAFN[S5]Y[Phe(4-F)]A-NH2
modifications: staple 9-16
SMILES: CC[C@H](C)[C@H](NC(C)=O)C(=O)N[C@@H](Cc1c[nH]c2ccccc12)C(=O)N[C@H](C(=O)N[C@@H](C)C(=O)N[C@@H](CCC(N)=O)C(=O)N[C@@H](C)C(=O)N[C@@H](CC(C)C)C(=O)N[C@@H](CCCNC(=N)N)C(=O)N[C@]1(C)CCCCCCC=CCCC[C@@](C)(C(=O)N[C@@H](Cc2ccc(O)cc2)C(=O)N[C@@H](Cc2ccc(F)cc2)C(=O)N[C@@H](C)C(N)=O)NC(=O)[C@H](CC(N)=O)NC(=O)[C@H](Cc2ccccc2)NC(=O)[C@H](C)NC(=O)[C@H](CC(=O)O)NC(=O)CNC(=O)[C@H](CCC(C)C)NC1=O)[C@@H](C)CC
